Laboratory results: patent publication US20090280138A1 (OXFORD BIOMEDICA UK, published 2009)

What follows are binders tested against T1, MHC class I molecule A*0101 (biotin (bound to streptavidin-coated plate)) (assay: iTopia iScore).
T1 construct: also called A1; HLA-A1
Procedure: (§1) The 9 mers were tested for Peptide Binding, Off Rate and Affinity using iTopia Epitope Discovery System in accordance with the manufacturer's instructions. Briefly, 96 well microtitre plates coated with MHC molecules representing different MHC alleles are used to identify candidate peptides. […] Determinations are performed in duplicate using an ELISA plate reader and included allele specific positive controls.
(§2) Finally, multiparametric analysis is performed on the results from these assays and an iScore is generated. The iScore represents a measure of the overall quality of peptide-MHC binding, enabling candidate peptides to be ranked in order of binding quality and allowing rational prioritisation of peptides for functional cellular follow-up studies.

ASAVSAQPP [5T4 9-mer peptide 25 ASAVSAQPP] was tested. Which iScore did it give?
The iScore was 0.

For PDQCPALCE [5T4 9-mer peptide 30 PDQCPALCE], which iScore is on record?
Its iScore is 0.

Which iScore does the source give for PLPDQCPAL [5T4 9-mer peptide 29 PLPDQCPAL] here?
Its iScore is 0.

LLGWVSSSS [5T4 9-mer peptide 13 LLGWVSSSS] was tested. Which iScore did it give?
Its iScore is 0.

GWVSSSSPT [5T4 9-mer peptide 14 GWVSSSSPT] was tested. Which iScore did it give?
The iScore was 0.

LPAYVRNLF [5T4 9-mer peptide 45 LPAYVRNLF] was tested. Which iScore did it give?
Its iScore is 0.

How did the iScore turn out when PALCECSEA [5T4 9-mer peptide 32 PALCECSEA] was run?
The iScore was 0.

SPTSSASSF [5T4 9-mer peptide 17 SPTSSASSF] was tested. Which iScore did it give?
The iScore was 0.

LVLLGWVSS [5T4 9-mer peptide 12 LVLLGWVSS] was tested. Which iScore did it give?
Its iScore is 0.

RLRLARLAL [5T4 9-mer peptide 8 RLRLARLAL] was tested. Which iScore did it give?
The iScore was 0.

Which iScore does the source give for GGCSRGPAA [5T4 9-mer peptide 2 GGCSRGPAA] here?
Its iScore is 0.

How did the iScore turn out when TEVPTDLPA [5T4 9-mer peptide 42 TEVPTDLPA] was run?
The iScore was 0.

With SSFSSSAPF [5T4 9-mer peptide 20 SSFSSSAPF] as the binder, how does the iScore read?
Its iScore is 0.

How did the iScore turn out when ECSEAARTV [5T4 9-mer peptide 34 ECSEAARTV] was run?
Its iScore is 0.

With SASSFSSSA [5T4 9-mer peptide 19 SASSFSSSA] as the binder, how does the iScore read?
The iScore was 0.

For CVNRNLTEV [5T4 9-mer peptide 39 CVNRNLTEV], which iScore is on record?
Its iScore is 0.

How did the iScore turn out when VRNLFLTGN [5T4 9-mer peptide 47 VRNLFLTGN] was run?
The iScore was 0.

Which iScore does the source give for NRNLTEVPT [5T4 9-mer peptide 40 NRNLTEVPT] here?
Its iScore is 0.

FLASAVSAQ [5T4 9-mer peptide 24 FLASAVSAQ] was tested. Which iScore did it give?
The iScore was 0.

Which iScore does the source give for RGPAAGDGR [5T4 9-mer peptide 4 RGPAAGDGR] here?
The iScore was 0.

Which iScore does the source give for NLTEVPTDL [5T4 9-mer peptide 41 NLTEVPTDL] here?
The iScore was 0.

AGDGRLRLA [5T4 9-mer peptide 6 AGDGRLRLA] was tested. Which iScore did it give?
Its iScore is 0.

For VKCVNRNLT [5T4 9-mer peptide 38 VKCVNRNLT], which iScore is on record?
Its iScore is 0.

The binders below were run against T2, MHC class I molecule A*0201 (biotin (bound to streptavidin-coated plate)) (assay: iTopia iScore).
T2 construct: also called A2; HLA-A2
Procedure: as §1, §2

Which iScore does the source give for ASAVSAQPP [5T4 9-mer peptide 25 ASAVSAQPP] here?
Its iScore is 0.

PDQCPALCE [5T4 9-mer peptide 30 PDQCPALCE] was tested. Which iScore did it give?
Its iScore is 0.

PLPDQCPAL [5T4 9-mer peptide 29 PLPDQCPAL] was tested. Which iScore did it give?
The iScore was 0.88.

How did the iScore turn out when LLGWVSSSS [5T4 9-mer peptide 13 LLGWVSSSS] was run?
The iScore was 0.243.

With GWVSSSSPT [5T4 9-mer peptide 14 GWVSSSSPT] as the binder, how does the iScore read?
Its iScore is 0.044.

Which iScore does the source give for LPAYVRNLF [5T4 9-mer peptide 45 LPAYVRNLF] here?
Its iScore is 0.

Which iScore does the source give for PALCECSEA [5T4 9-mer peptide 32 PALCECSEA] here?
Its iScore is 0.082.

Which iScore does the source give for SPTSSASSF [5T4 9-mer peptide 17 SPTSSASSF] here?
The iScore was 0.

Which iScore does the source give for LVLLGWVSS [5T4 9-mer peptide 12 LVLLGWVSS] here?
Its iScore is 0.122.

RLRLARLAL [5T4 9-mer peptide 8 RLRLARLAL] was tested. Which iScore did it give?
Its iScore is 0.216.

For GGCSRGPAA [5T4 9-mer peptide 2 GGCSRGPAA], which iScore is on record?
The iScore was 0.016.

For TEVPTDLPA [5T4 9-mer peptide 42 TEVPTDLPA], which iScore is on record?
The iScore was 0.

How did the iScore turn out when SSFSSSAPF [5T4 9-mer peptide 20 SSFSSSAPF] was run?
The iScore was 0.037.

ECSEAARTV [5T4 9-mer peptide 34 ECSEAARTV] was tested. Which iScore did it give?
Its iScore is 0.

Which iScore does the source give for SASSFSSSA [5T4 9-mer peptide 19 SASSFSSSA] here?
Its iScore is 0.045.

For CVNRNLTEV [5T4 9-mer peptide 39 CVNRNLTEV], which iScore is on record?
Its iScore is 0.05.

For VRNLFLTGN [5T4 9-mer peptide 47 VRNLFLTGN], which iScore is on record?
The iScore was 0.

NRNLTEVPT [5T4 9-mer peptide 40 NRNLTEVPT] was tested. Which iScore did it give?
Its iScore is 0.

FLASAVSAQ [5T4 9-mer peptide 24 FLASAVSAQ] was tested. Which iScore did it give?
Its iScore is 0.134.

With RGPAAGDGR [5T4 9-mer peptide 4 RGPAAGDGR] as the binder, how does the iScore read?
The iScore was 0.032.

Which iScore does the source give for NLTEVPTDL [5T4 9-mer peptide 41 NLTEVPTDL] here?
The iScore was 0.253.

AGDGRLRLA [5T4 9-mer peptide 6 AGDGRLRLA] was tested. Which iScore did it give?
The iScore was 0.023.

Which iScore does the source give for VKCVNRNLT [5T4 9-mer peptide 38 VKCVNRNLT] here?
Its iScore is 0.

These binders were tested against T3, MHC class I molecule A*0301 (biotin (bound to streptavidin-coated plate)) (assay: iTopia iScore).
T3 construct: also called A3; HLA-A3
Procedure: as §1, §2

For ASAVSAQPP [5T4 9-mer peptide 25 ASAVSAQPP], which iScore is on record?
Its iScore is 0.

For PDQCPALCE [5T4 9-mer peptide 30 PDQCPALCE], which iScore is on record?
Its iScore is 0.

How did the iScore turn out when PLPDQCPAL [5T4 9-mer peptide 29 PLPDQCPAL] was run?
Its iScore is 0.

How did the iScore turn out when LLGWVSSSS [5T4 9-mer peptide 13 LLGWVSSSS] was run?
The iScore was 0.

Which iScore does the source give for GWVSSSSPT [5T4 9-mer peptide 14 GWVSSSSPT] here?
The iScore was 0.

Which iScore does the source give for LPAYVRNLF [5T4 9-mer peptide 45 LPAYVRNLF] here?
The iScore was 0.

For PALCECSEA [5T4 9-mer peptide 32 PALCECSEA], which iScore is on record?
The iScore was 0.

SPTSSASSF [5T4 9-mer peptide 17 SPTSSASSF] was tested. Which iScore did it give?
Its iScore is 0.

LVLLGWVSS [5T4 9-mer peptide 12 LVLLGWVSS] was tested. Which iScore did it give?
Its iScore is 0.

With RLRLARLAL [5T4 9-mer peptide 8 RLRLARLAL] as the binder, how does the iScore read?
Its iScore is 0.027.

For GGCSRGPAA [5T4 9-mer peptide 2 GGCSRGPAA], which iScore is on record?
The iScore was 0.

How did the iScore turn out when TEVPTDLPA [5T4 9-mer peptide 42 TEVPTDLPA] was run?
Its iScore is 0.

With SSFSSSAPF [5T4 9-mer peptide 20 SSFSSSAPF] as the binder, how does the iScore read?
Its iScore is 0.

ECSEAARTV [5T4 9-mer peptide 34 ECSEAARTV] was tested. Which iScore did it give?
Its iScore is 0.

For SASSFSSSA [5T4 9-mer peptide 19 SASSFSSSA], which iScore is on record?
The iScore was 0.

CVNRNLTEV [5T4 9-mer peptide 39 CVNRNLTEV] was tested. Which iScore did it give?
Its iScore is 0.

How did the iScore turn out when VRNLFLTGN [5T4 9-mer peptide 47 VRNLFLTGN] was run?
Its iScore is 0.

NRNLTEVPT [5T4 9-mer peptide 40 NRNLTEVPT] was tested. Which iScore did it give?
Its iScore is 0.

For FLASAVSAQ [5T4 9-mer peptide 24 FLASAVSAQ], which iScore is on record?
Its iScore is 0.

How did the iScore turn out when RGPAAGDGR [5T4 9-mer peptide 4 RGPAAGDGR] was run?
Its iScore is 0.

NLTEVPTDL [5T4 9-mer peptide 41 NLTEVPTDL] was tested. Which iScore did it give?
The iScore was 0.

With AGDGRLRLA [5T4 9-mer peptide 6 AGDGRLRLA] as the binder, how does the iScore read?
The iScore was 0.

How did the iScore turn out when VKCVNRNLT [5T4 9-mer peptide 38 VKCVNRNLT] was run?
Its iScore is 0.

The binders below were run against T4, MHC class I molecule B*0702 (biotin (bound to streptavidin-coated plate)) (assay: iTopia iScore).
T4 construct: also called B7; HLA-B7
Procedure: as §1, §2

Which iScore does the source give for ASAVSAQPP [5T4 9-mer peptide 25 ASAVSAQPP] here?
Its iScore is 0.

PDQCPALCE [5T4 9-mer peptide 30 PDQCPALCE] was tested. Which iScore did it give?
Its iScore is 0.

PLPDQCPAL [5T4 9-mer peptide 29 PLPDQCPAL] was tested. Which iScore did it give?
The iScore was 0.

How did the iScore turn out when LLGWVSSSS [5T4 9-mer peptide 13 LLGWVSSSS] was run?
The iScore was 0.

GWVSSSSPT [5T4 9-mer peptide 14 GWVSSSSPT] was tested. Which iScore did it give?
The iScore was 0.

How did the iScore turn out when LPAYVRNLF [5T4 9-mer peptide 45 LPAYVRNLF] was run?
The iScore was 0.389.

Which iScore does the source give for PALCECSEA [5T4 9-mer peptide 32 PALCECSEA] here?
Its iScore is 0.

How did the iScore turn out when SPTSSASSF [5T4 9-mer peptide 17 SPTSSASSF] was run?
The iScore was 0.335.

Which iScore does the source give for LVLLGWVSS [5T4 9-mer peptide 12 LVLLGWVSS] here?
Its iScore is 0.

With RLRLARLAL [5T4 9-mer peptide 8 RLRLARLAL] as the binder, how does the iScore read?
The iScore was 1.

How did the iScore turn out when GGCSRGPAA [5T4 9-mer peptide 2 GGCSRGPAA] was run?
Its iScore is 0.012.

TEVPTDLPA [5T4 9-mer peptide 42 TEVPTDLPA] was tested. Which iScore did it give?
The iScore was 0.

With SSFSSSAPF [5T4 9-mer peptide 20 SSFSSSAPF] as the binder, how does the iScore read?
Its iScore is 0.

With ECSEAARTV [5T4 9-mer peptide 34 ECSEAARTV] as the binder, how does the iScore read?
Its iScore is 0.

With SASSFSSSA [5T4 9-mer peptide 19 SASSFSSSA] as the binder, how does the iScore read?
Its iScore is 0.

Which iScore does the source give for CVNRNLTEV [5T4 9-mer peptide 39 CVNRNLTEV] here?
Its iScore is 0.093.

With VRNLFLTGN [5T4 9-mer peptide 47 VRNLFLTGN] as the binder, how does the iScore read?
Its iScore is 0.

With NRNLTEVPT [5T4 9-mer peptide 40 NRNLTEVPT] as the binder, how does the iScore read?
The iScore was 0.

FLASAVSAQ [5T4 9-mer peptide 24 FLASAVSAQ] was tested. Which iScore did it give?
The iScore was 0.

With RGPAAGDGR [5T4 9-mer peptide 4 RGPAAGDGR] as the binder, how does the iScore read?
Its iScore is 0.

Which iScore does the source give for NLTEVPTDL [5T4 9-mer peptide 41 NLTEVPTDL] here?
The iScore was 0.

How did the iScore turn out when AGDGRLRLA [5T4 9-mer peptide 6 AGDGRLRLA] was run?
The iScore was 0.

For VKCVNRNLT [5T4 9-mer peptide 38 VKCVNRNLT], which iScore is on record?
The iScore was 0.
